Reference: article PMC7589982

Target: HPV16 E6 oncoprotein, full-length, LexA bait (pGilda/LexA) (human papillomavirus 16) (UniProt P03126)
Experiment: two-hybrid; full-length HPV16 E6 in pGilda/LexA as bait; growth on medium lacking leucine, blue colonies, beta-galactosidase activity (unit) with ONPG

UniProt P03126, sequence (P03126 whole entry): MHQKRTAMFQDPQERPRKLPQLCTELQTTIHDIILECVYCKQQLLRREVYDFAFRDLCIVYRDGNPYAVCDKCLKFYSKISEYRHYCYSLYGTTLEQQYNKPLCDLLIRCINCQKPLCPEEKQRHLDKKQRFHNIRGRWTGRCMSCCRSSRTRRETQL

IRF-1 (interferon regulatory factor-1), yeast two-hybrid prey (natural protein)
β-galactosidase activity: 88.2 unit
